Measured values taken from the supplement of paper PMC5998384.

Key:
HeLa Kyoto [1] = test: solubility in G1/S (NP-40 vs SDS abundance) (log2 ratio); higher = more soluble; settings: cell cycle stage: G1/S
HeLa Kyoto [2] = test: melting temperature (median over replicates), in situ; higher = more thermally stable
HeLa Kyoto [3] = test: solubility change mitosis vs G1/S (difference of NP-40 vs SDS log2 ratios) (log2 ratio difference); higher = more soluble in mitosis
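Throughout, for melting temperature (median over replicates), in situ: HeLa Kyoto cells synchronized by double thymidine or nocodazole block, proteins quantified by TMT10plex mass spectrometry, three independent biological replicates.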
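Throughout, for solubility change mitosis vs G1/S (difference of NP-40 vs SDS log2 ratios): synchronized HeLa Kyoto cells (double thymidine block for G1/S, nocodazole release for mitosis), protein amounts in NP-40 versus SDS lysates quantified by mass spectrometry, three biological replicates.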
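Throughout, for solubility in G1/S (NP-40 vs SDS abundance): HeLa Kyoto cells arrested at G1/S by double thymidine block, proteins quantified by TMT10plex mass spectrometry in mild NP-40 versus SDS extracts, three biological replicates.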

| Sequence | solubility in G1/S (log2) (HeLa Kyoto [1]) | melting temperature (HeLa Kyoto [2]; cell cycle stage: G1/S) | melting temperature (HeLa Kyoto [2]; cell cycle stage: mitosis) | solubility change mitosis (log2) (HeLa Kyoto [3]) |
| --- | --- | --- | --- | --- |
| MTSTGQDSTTTRQRRSRQNPQSPPQDSSVTSKRNIKKGAVPRSIPNLAEVKKKGKMKKLGQAMEEDLIVGLQGMDLNLEAEALAGTGLVLDEQLNEFHCLWDDSFPEGPERLHAIKEQLIQEGLLDRCVSFQARFAEKEELMLVHSLEYIDLMETTQYMNEGELRVLADTYDSVYLHPNSYSCACLASGSVLRLVDAVLGAEIRNGMAIIRPPGHHAQHSLMDGYCMFNHVAVAARYAQQKHRIRRVLIVDWDVHHGQGTQFTFDQDPSVLYFSIHRYEQGRFWPHLKASNWSTTGFGQGQGYTINVPWNQVGMRDADYIAAFLHVLLPVALEFQPQLVLVAAGFDALQGDPKGEMAATPAGFAQLTHLLMGLAGGKLILSLEGGYNLRALAEGVSASLHTLLGDPCPMLESPGAPCRSAQASVSCALEALEPFWEVLVRSTETVERDNMEEDNVEESEEEGPWEPPVLPILTWPVLQSRTGLVYDQNMMNHCNLWDSHHPEVPQRILRIMCRLEELGLAGRCLTLTPRPATEAELLTCHSAEYVGHLRATEKMKTRELHRESSNFDSIYICPSTFACAQLATGAACRLVEAVLSGEVLNGAAVVRPPGHHAEQDAACGFCFFNSVAVAARHAQTISGHALRILIVDWDVHHGNGTQHMFEDDPSVLYVSLHRYDHGTFFPMGDEGASSQIGRAAGTGFTVNVAWNGPRMGDADYLAAWHRLVLPIAYEFNPELVLVSAGFDAARGDPLGGCQVSPEGYAHLTHLLMGLASGRIILILEGGYNLTSISESMAACTRSLLGDPPPLLTLPRPPLSGALASITETIQVHRRYWRSLRVMKVEDREGPSSSKLVTKKAPQPAKPRLAERMTTREKKVLEAGMGKVTSASFGEESTPGQTNSETAVVALTQDQPSEAATGGATLAQTISEAAIGGAMLGQTTSEEAVGGATPDQTTSEETVGGAILDQTTSEDAVGGATLGQTTSEEAVGGATLAQTTSEAAMEGATLDQTTSEEAPGGTELIQTPLASSTDHQTPPTSPVQGTTPQISPSTLIGSLRTLELGSESQGASESQAPGEENLLGEAAGGQDMADSMLMQGSRGLTDQAIFYAVTPLPWCPHLVAVCPIPAAGLDVTQPCGDCGTIQENWVCLSCYQVYCGRYINGHMLQHHGNSGHPLVLSYIDLSAWCYYCQAYVHHQALLDVKNIAHQNKFGEDMPHPH [HDAC6] | -0.0107 | 50.5 °C | 52 °C | -0.0591 |
| MTTSSIRRQMKNIVNNYSEAEIKVREATSNDPWGPSSSLMTEIADLTYNVVAFSEIMSMVWKRLNDHGKNWRHVYKALTLLDYLIKTGSERVAQQCRENIFAIQTLKDFQYIDRDGKDQGINVREKSKQLVALLKDEERLKAERAQALKTKERMAQVATGMGSNQITFGRGSSQPNLSTSHSEQEYGKAGGSPASYHGSPEASLCPQHRTGAPLGQSEELQPLSQRHPFLPHLGLASRPNGDWSQPCLTCDRAARATSPRVSSELEQARPQTSGEEELQLQLALAMSREVAEQEERLRRGDDLRLQMALEESRRDTVKIPKKKEHGSLPQQTTLLDLMDALPSSGPAAQKAEPWGPSASTNQTNPWGGPAAPASTSDPWPSFGTKPAASIDPWGVPTGATVQSVPKNSDPWAASQQPASSAGKRASDAWGAVSTTKPVSVSGSFELFSNLNGTIKDDFSEFDNLRTSKKTAESVTSLPSQNNGTTSPDPFESQPLTVASSKPSSARKTPESFLGPNAALVNLDSLVTRPAPPAQSLNPFLAPGAPATSAPVNPFQVNQPQPLTLNQLRGSPVLGTSTSFGPGPGVESMAVASMTSAAPQPALGATGSSLTPLGPAMMNMVGSVGIPPSAAQATGTTNPFLL [EPN2] | 0.656 | 54.9 °C | 54.6 °C | -0.0178 |
| MSLKMDNRDVAGKANRWFGVAPPKSGKMNMNILHQEELIAQKKREIEAKMEQKAKQNQVASPQPPHPGEITNAHNSSCISNKFANDGSFLQQFLKLQKAQTSTDAPTSAPSAPPSTPTPSAGKRSLLISRRTGLGLASLPGPVKSYSHAKQLPVAHRPSVFQSPDEDEEEDYEQWLEIKVSPPEGAETRKVIEKLARFVAEGGPELEKVAMEDYKDNPAFAFLHDKNSREFLYYRKKVAEIRKEAQKSQAASQKVSPPEDEEVKNLAEKLARFIADGGPEVETIALQNNRENQAFSFLYEPNSQGYKYYRQKLEEFRKAKASSTGSFTAPDPGLKRKSPPEALSGSLPPATTCPASSTPAPTIIPAPAAPGKPASAATVKRKRKSRWGPEEDKVELPPAELVQRDVDASPSPLSVQDLKGLGYEKGKPVGLVGVTELSDAQKKQLKEQQEMQQMYDMIMQHKRAMQDMQLLWEKAVQQHQHGYDSDEEVDSELGTWEHQLRRMEMDKTREWAEQLTKMGRGKHFIGDFLPPDELEKFMETFKALKEGREPDYSEYKEFKLTVENIGYQMLMKMGWKEGEGLGSEGQGIKNPVNKGTTTVDGAGFGIDRPAELSKEDDEYEAFRKRMMLAYRFRPNPLNNPRRPYY [SUGP1] | 0.221 | 47.3 °C | 50.8 °C | 0.255 |
| MSAARESHPHGVKRSASPDDDLGSSNWEAADLGNEERKQKFLRLMGAGKKEHTGRLVIGDHKSTSHFRTGEEDKKINEELESQYQQSMDSKLSGRYRRHCGLGFSEVEDHDGEGDVAGDDDDDDDDSPDPESPDDSESDSESEKEESAEELQAAEHPDEVEDPKNKKDAKSNYKMMFVKSSGS [SMAP] | 0.338 | 55 °C |  | 0.413 |
| MMKFKPNQTRTYDREGFKKRAACLCFRSEQEDEVLLVSSSRYPDQWIVPGGGMEPEEEPGGAAVREVYEEAGVKGKLGRLLGIFENQDRKHRTYVYVLTVTEILEDWEDSVNIGRKREWFKVEDAIKVLQCHKPVHAEYLEKLKLGCSPANGNSTVPSLPDNNALFVTAAQTSGLPSSVR [NUDT4] | 0.505 |  | 49.3 °C | -0.0227 |
| MALAGCPDSFLHHPYYQDKVEQTPRSQQDPAGPGLPAQSDRLANHQEDDVDLEALVNDMNASLESLYSACSMQSDTVPLLQNGQHARSQPRASGPPRSIQPQVSPRQRVQRSQPVHILAVRRLQEEDQQFRTSSLPAIPNPFPELCGPGSPPVLTPGSLPPSQAAAKQDVKVFSEDGTSKVVEILADMTARDLCQLLVYKSHCVDDNSWTLVEHHPHLGLERCLEDHELVVQVESTMASESKFLFRKNYAKYEFFKNPMNFFPEQMVTWCQQSNGSQTQLLQNFLNSSSCPEIQGFLHVKELGKKSWKKLYVCLRRSGLYCSTKGTSKEPRHLQLLADLEDSNIFSLIAGRKQYNAPTDHGLCIKPNKVRNETKELRLLCAEDEQTRTCWMTAFRLLKYGMLLYQNYRIPQQRKALLSPFSTPVRSVSENSLVAMDFSGQTGRVIENPAEAQSAALEEGHAWRKRSTRMNILGSQSPLHPSTLSTVIHRTQHWFHGRISREESHRIIKQQGLVDGLFLLRDSQSNPKAFVLTLCHHQKIKNFQILPCEDDGQTFFSLDDGNTKFSDLIQLVDFYQLNKGVLPCKLKHHCIRVAL [GRB10] | 0.159 | 48.1 °C | 49.1 °C | -0.231 |
| MSVAGLKKQFHKATQKVSEKVGGAEGTKLDDDFKEMERKVDVTSRAVMEIMTKTIEYLQPNPASRAKLSMINTMSKIRGQEKGPGYPQAEALLAEAMLKFGRELGDDCNFGPALGEVGEAMRELSEVKDSLDIEVKQNFIDPLQNLHDKDLREIQHHLKKLEGRRLDFDYKKKRQGKIPDEELRQALEKFDESKEIAESSMFNLLEMDIEQVSQLSALVQAQLEYHKQAVQILQQVTVRLEERIRQASSQPRREYQPKPRMSLEFPTGDSTQPNGGLSHTGTPKPSGVQMDQPCCRALYDFEPENEGELGFKEGDIITLTNQIDENWYEGMLHGHSGFFPINYVEILVALPH [SH3GL2] | 0.586 | 48.7 °C | 49.2 °C | -0.159 |
| MAAAAPGNGRASAPRLLLLFLVPLLWAPAAVRAGPDEDLSHRNKEPPAPAQQLQPQPVAVQGPEPARVEKIFTPAAPVHTNKEDPATQTNLGFIHAFVAAISVIIVSELGDKTFFIAAIMAMRYNRLTVLAGAMLALGLMTCLSVLFGYATTVIPRVYTYYVSTVLFAIFGIRMLREGLKMSPDEGQEELEEVQAELKKKDEEFQRTKLLNGPGDVETGTSITVPQKKWLHFISPIFVQALTLTFLAEWGDRSQLTTIVLAAREDPYGVAVGGTVGHCLCTGLAVIGGRMIAQKISVRTVTIIGGIVFLAFAFSALFISPDSGF [TMEM165] | 0.0487 | 60.8 °C | 56.9 °C | -0.178 |
| MHRGVGPAFRVVRKMAASGAEPQVLVQYLVLRKDLSQAPFSWPAGALVAQACHAATAALHTHRDHPHTAAYLQELGRMRKVVLEAPDETTLKELAETLQQKNIDHMLWLEQPENIATCIALRPYPKEEVGQYLKKFRLFK [PTRHD1] | -0.278 | 55.6 °C | 52.6 °C | 0.625 |
| MSSKKAKTKTTKKRPQRATSNVFAMFDQSQIQEFKEAFNMIDQNRDGFIDKEDLHDMLASLGKNPTDAYLDAMMNEAPGPINFTMFLTMFGEKLNGTDPEDVIRNAFACFDEEATGTIQEDYLRELLTTMGDRFTDEEVDELYREAPIDKKGNFNYIEFTRILKHGAKDKDD [MYL12B] | 0.24 | 54 °C | 52.7 °C | 0.538 |
